Test results as given in paper PMC9929473, “Ensembles of human myosin-19 bound to calmodulin and regulatory light chain RLC12B drive multimicron transport” (The Journal of Biological Chemistry, 2023).

Columns and labels:
[1] = molecular target: Myo19-3xIQ-BioTag (human myosin-19 motor domain and IQ region with N-terminal FLAG tag and C-terminal biotin tag) (human) (UniProt Q96H55); experiment: co-sedimentation; about 2 μM Myo19-3xIQ-BioTag preparation, 4 μM F-actin, 10 μM CaM in S-Buffer (15 mM Hepes pH 7.5, 7 mM imidazole, 125 mM NaCl, 5 mM MgCl2, 1 mM EGTA, 1 mM DTT), 200,000g 20 min; pellet on SDS-PAGE, gel densitometry with BSA, RLC12B and CaM standards; no calcium
[2] = molecular target: Myo19-3xIQ-BioTag (human myosin-19 motor domain and IQ region with N-terminal FLAG tag and C-terminal biotin tag) (human) (UniProt Q96H55)
[3] = molecular target: Myo19-3xIQ-BioTag (human myosin-19 motor domain and IQ region with N-terminal FLAG tag and C-terminal biotin tag) (human) (UniProt Q96H55); experiment: SEC-MALS; complex fixed with glutaraldehyde during 5 to 30% glycerol gradient centrifugation (GraFix; 20 mM Hepes pH 7.5, 0.2 M NaCl, 5 mM MgCl2, 1 mM EGTA, 4 °C, without calcium), then TSKgel SuperSW2000 with MALS
[4] = molecular target: Myo19-3xIQ-BioTag (human myosin-19 motor domain and IQ region with N-terminal FLAG tag and C-terminal biotin tag) (human) (UniProt Q96H55); experiment: co-sedimentation; as a4 with 1.1 mM CaCl2 added (0.1 mM free Ca2+)
[5] = molecular target: Myo19-3xIQ-BioTag (human myosin-19 motor domain and IQ region with N-terminal FLAG tag and C-terminal biotin tag) (human) (UniProt Q96H55); remark: listed apart in the source
[6] = molecular target: Myo19-3xIQ-BioTag (human myosin-19 motor domain and IQ region with N-terminal FLAG tag and C-terminal biotin tag) (human) (UniProt Q96H55); remark: listed apart in the source
[7] = molecular target: T1, Myo19-3xIQ-BioTag (human myosin-19 motor domain and IQ region with N-terminal FLAG tag and C-terminal biotin … (human, UniProt Q96H55 1-851, biotinylated on the BioTag during expression)); experiment: SEC-MALS; complex fixed with glutaraldehyde during 5 to 30% glycerol gradient centrifugation (GraFix; 20 mM Hepes pH 7.5, 0.2 M NaCl, 5 mM MgCl2, 1 mM EGTA, 4 °C, without calcium), then TSKgel SuperSW2000 with MALS; conditions: both partners purified
T1 construct: also called HC; biotinylated Myo19; not shown: biotin tag (BioTag), C-terminal, kept

[8] = molecular target: T1, Myo19-3xIQ-BioTag (human myosin-19 …); experiment: co-sedimentation; about 2 μM Myo19-3xIQ-BioTag preparation, 4 μM F-actin, 10 μM CaM in S-Buffer (15 mM Hepes pH 7.5, 7 mM imidazole, 125 mM NaCl, 5 mM MgCl2, 1 mM EGTA, 1 mM DTT), 200,000g 20 min; pellet on SDS-PAGE, gel densitometry with BSA, RLC12B and CaM standards; no calcium; conditions: both partners purified

## Calmodulin (CaM) coexpressed with Myo19-3xIQ-BioTag in Sf9 cells and added in excess (from UniProt P0DP23 1-149) (natural protein)
[1]
  CaM to RLC12B ratio bound to Myo19-3xIQ (CaM per RLC12B): 1.9
  stoichiometry N: 3.4
[2]
  actin gliding speed of Myo19-3xIQ-BioTag (copurified with RLC12B and CaM) against added CaM, 37 °C, no calcium; EC50 of a hyperbolic fit: 700 nM
[3]
  stoichiometry N: 2
[4]
  CaM:RLC12B ratio bound to Myo19-3xIQ (CaM per RLC12B): 2.8
[5]
  actin gliding speed of Myo19 coexpressed with CaM alone against added CaM in the presence of 1 μM RLC12B; EC50 of a hyperbolic fit: 200 nM
  actin gliding speed of Myo19 coexpressed with CaM alone against added CaM; EC50 of a hyperbolic fit: 200 nM
[6]
  actin gliding speed with 0.1 mM free calcium against added CaM (0.1 to 10 μM CaM–Ca2+); highest speed at 4 μM: 210 nm/s

## RLC12B purified from E. coli (MBP removed by TEV protease) (from UniProt O14950 1-172) (natural protein)
[2]
  actin gliding speed of Myo19-3xIQ-BioTag (copurified with RLC12B and CaM) against added RLC12B alone, 37 °C; maximal speed at 1 μM RLC12B: 150 nm/s
  actin gliding speed with 4 μM CaM fixed against increasing RLC12B; IC50 of an inhibition fit: 200 nM
[5]
  actin gliding speed when 1 μM RLC12B was added in solution in the presence of CaM: 250 nm/s

B1: RLC12B coexpressed with Myo19-3xIQ-BioTag in Sf9 cells (natural protein, human, UniProt O14950 1-172, looked up)
chain: MSSKKAKTKTTKKRPQRATSNVFAMFDQSQIQEFKEAFNMIDQNRDGFIDKEDLHDMLASLGKNPTDAYLDAMMNEAPGPINFTMFLTMFGEKLNGTDPEDVIRNAFACFDEEATGTIQEDYLRELLTTMGDRFTDEEVDELYREAPIDKKGNFNYIEFTRILKHGAKDKDD
notes: Myosin regulatory light chain 12B (RLC12B), O14950-1; also called MYL12B; source: Sf9-baculovirus, coexpressed and copurified with Myo19-3xIQ-BioTag
[7]
  stoichiometry N: 1
[8]
  stoichiometry N: 1.8
